According to patent US20240117018A1:

Assays:
Assay in all cases: cell-based or functional assay
[1] = target: HIV-1 Env pseudovirus 0815.v3.c3 (HIV-1)
[2] = target: HIV-1 Env pseudovirus 211-9 (HIV-1)
[3] = target: HIV-1 Env pseudovirus 235-47 (HIV-1)
[4] = target: HIV-1 Env pseudovirus 3103.v3.c10 (HIV-1)
[5] = target: HIV-1 Env pseudovirus 3301.v1.c24 (HIV-1)
[6] = target: HIV-1 Env pseudovirus 6952.v1.c20 (HIV-1)
[7] = target: HIV-1 Env pseudovirus R1166.c01 (HIV-1)
[8] = target: Env of HIV-1 pseudovirus 1056_10_TA11_1826 (HIV-1)
[9] = target: Env of HIV-1 pseudovirus 1394C9G1(Rev-) (HIV-1)
[10] = target: Env of HIV-1 pseudovirus 263-8 (HIV-1)
[11] = target: Env of HIV-1 pseudovirus 7030102001E5(Rev-) (HIV-1)
[12] = target: Env of HIV-1 pseudovirus Ce1086_B2 (HIV-1)
[13] = target: Env of HIV-1 pseudovirus Ce1172_H1 (HIV-1)
[14] = target: Env of HIV-1 pseudovirus Ce704809221_1B3 (HIV-1)
[15] = target: Env of HIV-1 pseudovirus HIV-0013095-2.11 (HIV-1)
[16] = target: Env of HIV-1 pseudovirus MS208.A1 (HIV-1)
[17] = target: Env of HIV-1 pseudovirus REJO4541.67 (HIV-1)
[18] = target: Env of HIV-1 pseudovirus THRO4156.18 (HIV-1)
[19] = target: Env of HIV-1 pseudovirus WEAU_d15_410_787 (HIV-1)
[20] = target: HIV-1 Env pseudovirus 1012_11_TC21_3257 (HIV-1)
[21] = target: HIV-1 Env pseudovirus 62357_14_D3_4589 (HIV-1)
[22] = target: HIV-1 Env pseudovirus AC10.0.29 (HIV-1)
[23] = target: HIV-1 Env pseudovirus BF1266.431a (HIV-1)
[24] = target: HIV-1 Env pseudovirus CAP210.2.00.E8 (HIV-1)
[25] = target: HIV-1 Env pseudovirus CNE52 (HIV-1)
[26] = target: HIV-1 Env pseudovirus CNE53 (HIV-1)
[27] = target: HIV-1 Env pseudovirus CNE58 (HIV-1)
[28] = target: HIV-1 Env pseudovirus Ce0393_C3 (HIV-1)
[29] = target: HIV-1 Env pseudovirus Ce0682_E4 (HIV-1)
[30] = target: HIV-1 Env pseudovirus HIV-16845-2.22 (HIV-1)
[31] = target: HIV-1 Env pseudovirus MS208.A1 (HIV-1)
[32] = target: HIV-1 Env pseudovirus SC05_8C11_2344 (HIV-1)
[33] = target: HIV-1 Env pseudovirus TRJO4551.58 (HIV-1)
[34] = target: HIV-1 Env pseudovirus TRO.11 (HIV-1)
[35] = target: HIV-1 Env pseudovirus ZM109F.PB4 (HIV-1)
[36] = target: HIV-1 Env pseudovirus ZM53M.PB12 (HIV-1)

3BNC117 (antibody)
IC50 (Titer in TZM.bl cells) [1]: 0.01 µg/mL
IC80 (Titer in TZM.bl cells) [1]: 0.02 µg/mL
IC50 (Titer in TZM.bl cells) [2]: 0.35 µg/mL
IC80 (Titer in TZM.bl cells) [2]: 1.28 µg/mL
IC50 (Titer in TZM.bl cells) [3]: 0.03 µg/mL
IC80 (Titer in TZM.bl cells) [3]: 0.12 µg/mL
IC50 (Titer in TZM.bl cells) [4]: 0.22 µg/mL
IC80 (Titer in TZM.bl cells) [4]: 0.85 µg/mL
IC50 (Titer in TZM.bl cells) [5]: 0.01 µg/mL
IC80 (Titer in TZM.bl cells) [5]: 0.05 µg/mL
IC50 (Titer in TZM.bl cells) [6]: 0.15 µg/mL
IC80 (Titer in TZM.bl cells) [6]: 0.75 µg/mL
IC50 (Titer in TZM.bl cells) [7]: 0.17 µg/mL
IC80 (Titer in TZM.bl cells) [7]: 0.64 µg/mL

8ANC195 (antibody)
IC50 (Titer in TZM.bl cells) [1]: 1.94 µg/mL
IC80 (Titer in TZM.bl cells) [1]: 1.94 µg/mL
IC50 (Titer in TZM.bl cells) [2]: 1.34 µg/mL
IC80 (Titer in TZM.bl cells) [2]: 8.43 µg/mL
IC50 (Titer in TZM.bl cells) [3]: > 50 µg/mL
IC80 (Titer in TZM.bl cells) [3]: > 50 µg/mL
IC50 (Titer in TZM.bl cells) [4]: 48.1 µg/mL
IC80 (Titer in TZM.bl cells) [4]: > 50 µg/mL
IC50 (Titer in TZM.bl cells) [5]: > 50 µg/mL
IC80 (Titer in TZM.bl cells) [5]: > 50 µg/mL
IC50 (Titer in TZM.bl cells) [6]: 1.38 µg/mL
IC80 (Titer in TZM.bl cells) [6]: 7.22 µg/mL
IC50 (Titer in TZM.bl cells) [7]: 4.83 µg/mL
IC80 (Titer in TZM.bl cells) [7]: 4.83 µg/mL

10-1074 (antibody)
IC50 [8]: 0.038 µg/mL
IC80 [8]: 0.272 µg/mL
IC50 [9]: 0.05 µg/mL
IC80 [9]: 0.191 µg/mL
IC50 [10]: 0.666 µg/mL
IC80 [10]: 6.53 µg/mL
IC50 [11]: 6 ng/mL
IC80 [11]: 0.021 µg/mL
IC50 [12]: > 50 µg/mL
IC80 [12]: > 50 µg/mL
IC50 [13]: 0.047 µg/mL
IC80 [13]: 0.166 µg/mL
IC50 [14]: 0.139 µg/mL
IC80 [14]: 0.696 µg/mL
IC50 [15]: > 50 µg/mL
IC80 [15]: > 50 µg/mL
IC50 [16]: > 50 µg/mL
IC80 [16]: > 50 µg/mL
IC50 [17]: > 50 µg/mL
IC80 [17]: > 50 µg/mL
IC50 [18]: > 50 µg/mL
IC80 [18]: > 50 µg/mL
IC50 [19]: 0.104 µg/mL
IC80 [19]: 0.375 µg/mL

N49P7.2 (antibody)
IC50 [20]: 0.06 µg/mL
IC80 [20]: 0.285 µg/mL
MPI [20]: 100
IC50 [21]: 0.03 µg/mL
IC80 [21]: 0.121 µg/mL
MPI [21]: 100
IC50 [22]: 44.2 µg/mL
IC80 [22]: > 50 µg/mL
MPI [22]: 53
IC50 [23]: 0.029 µg/mL
IC80 [23]: 0.159 µg/mL
MPI [23]: 100
IC50 [24]: 3.94 µg/mL
IC80 [24]: 21.7 µg/mL
MPI [24]: 95
IC50 [25]: 0.03 µg/mL
IC80 [25]: 0.088 µg/mL
MPI [25]: 100
IC50 [26]: 0.1 µg/mL
IC80 [26]: 0.277 µg/mL
MPI [26]: 100
IC50 [27]: 0.045 µg/mL
IC80 [27]: 0.129 µg/mL
MPI [27]: 100
IC50 [28]: 0.137 µg/mL
IC80 [28]: 0.368 µg/mL
MPI [28]: 100
IC50 [29]: 0.067 µg/mL
IC80 [29]: 0.233 µg/mL
MPI [29]: 100
IC50 [30]: 3.91 µg/mL
IC80 [30]: 18.2 µg/mL
MPI [30]: 98
IC50 [31]: 0.186 µg/mL
IC80 [31]: 0.966 µg/mL
MPI [31]: 100
IC50 [32]: 0.326 µg/mL
IC80 [32]: 1.14 µg/mL
MPI [32]: 100
IC50 [33]: 0.21 µg/mL
IC80 [33]: 0.673 µg/mL
MPI [33]: 100
IC50 [34]: 0.113 µg/mL
IC80 [34]: 0.306 µg/mL
MPI [34]: 100
IC50 [35]: 0.065 µg/mL
IC80 [35]: 0.321 µg/mL
MPI [35]: 99
IC50 [36]: 0.477 µg/mL
IC80 [36]: 1.73 µg/mL
MPI [36]: 100
